Data taken from PMC8115334.

What was measured:
[1] = target: Prolink (PK)-tagged CXC chemokine receptor 4 (CXCR4) (UniProt P61073)
[2] = target: Prolink (PK)-tagged CXC chemokine receptor 4 (CXCR4) (UniProt P61073); remark: listed apart in the source

UniProt P61073, sequence (P61073 whole entry): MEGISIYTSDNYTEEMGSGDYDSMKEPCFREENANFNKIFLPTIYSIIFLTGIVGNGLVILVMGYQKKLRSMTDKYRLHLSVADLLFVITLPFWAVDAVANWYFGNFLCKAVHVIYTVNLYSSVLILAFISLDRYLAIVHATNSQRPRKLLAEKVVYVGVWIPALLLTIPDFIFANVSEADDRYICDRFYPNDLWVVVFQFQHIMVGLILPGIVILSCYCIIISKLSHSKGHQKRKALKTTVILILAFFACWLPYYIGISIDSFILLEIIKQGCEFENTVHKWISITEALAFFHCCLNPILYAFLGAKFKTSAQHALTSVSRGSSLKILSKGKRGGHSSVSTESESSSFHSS

half-time of internalization of SNAP-tagged CXCR4 in HEK293A cells with 1 µM CXCL12 (constitutive: 22.1 min) [1]: 14.1 min
real-time internalization of N-terminally SNAP-tagged CXCR4 in HEK293A cells, CXCL12 0.1 nM to 1 µM, potency of CXCL12 (pEC50) [1]: 7.7 pEC50
β-arrestin2 recruitment to PK-tagged CXCR4 (PathHunter, C2C12 cells), potency of CXCL12 (pEC50) [2]: 7.7 pEC50
Substance: CXC chemokine ligand 12 (CXCL12) (from UniProt P48061 22-93)
